The values that follow come from publication PMC2172719 (The Journal of Cell Biology, 2003).

One data set addresses T1, His-Ubc13 (yeast, UniProt P52490 1-153).
T1 sequence: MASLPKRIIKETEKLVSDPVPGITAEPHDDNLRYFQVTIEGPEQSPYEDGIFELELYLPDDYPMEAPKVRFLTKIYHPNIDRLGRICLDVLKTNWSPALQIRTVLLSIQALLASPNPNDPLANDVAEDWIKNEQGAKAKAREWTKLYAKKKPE
In words: SEC. A general note: In gel filtration, larger molecules generally elute earlier.

The data set “SEC” deals with the molecule itself. In words: SEC.

B1: His-Mms2 (natural protein)
chain: MSKVPRNFRLLEELEKGEKGFGPESCSYGLADSDDITMTKWNGTILGPPHSNHENRIYSLSIDCGPNYPDSPPKVTFISKINLPCVNPTTGEVQTDFHTLRDWKRAYTMETLLLDLRKEMATPANKKLRQPKEGETF
B1: the binding result in the data set with His-Ubc13 is listed as “binds”.

B2: His-tagged p97 ΔN (domain or fragment)
chain: not shown
As usually defined, the stoichiometry N is a count of units in the complex or per binding partner. In the case of B2, the “stoichiometry N” value in the data set “SEC” turned out to be 6.
